The target of experiment [1] is whole KDR-ECD (Cat. # 676490, Calbiochem) (human) (UniProt P35968). Briefly: ELISA, KDR-ECD coat 5 ug/mL, antibody 1 ug/mL. In general terms: ELISA stands for enzyme-linked immunosorbent assay.
For experiment [2] the target is unchanged. Description: ELISA, KDR-ECD coat 5 ug/mL, antibody 0.1 ug/mL.
Experiment [3] shares this target. Briefly: ELISA, KDR-ECD coat 5 ug/mL, antibody 0.01 ug/mL.
For experiment [4], the target named is soluble KDR Ig4-7 domain (human) (UniProt P35968). Briefly: ELISA, KDR Ig4-7 coat (1:1 diln.), antibody 1 ug/mL.
Chain of soluble KDR Ig4-7 domain (human) (P35968 328-764): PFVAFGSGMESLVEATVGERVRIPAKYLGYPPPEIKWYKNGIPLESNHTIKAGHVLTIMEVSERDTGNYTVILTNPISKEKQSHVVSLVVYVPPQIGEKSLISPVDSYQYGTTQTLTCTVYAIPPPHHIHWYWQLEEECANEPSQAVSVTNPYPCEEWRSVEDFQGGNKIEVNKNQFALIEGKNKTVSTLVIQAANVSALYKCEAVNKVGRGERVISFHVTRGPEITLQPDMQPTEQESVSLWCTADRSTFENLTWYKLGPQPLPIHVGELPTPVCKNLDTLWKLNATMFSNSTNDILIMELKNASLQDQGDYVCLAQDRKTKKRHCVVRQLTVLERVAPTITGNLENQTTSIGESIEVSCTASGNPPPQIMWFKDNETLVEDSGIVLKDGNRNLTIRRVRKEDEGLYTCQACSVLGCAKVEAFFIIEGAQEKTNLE
The target is the same in experiment [5]. Briefly: ELISA, KDR Ig4-7 coat (1:1 diln.), antibody 0.1 ug/mL.
Experiment [6] shares this target. Description: ELISA, KDR Ig4-7 coat (1:1 diln.), antibody 0.01 ug/mL.
For another experiment, the target named is KDR (human) (UniProt P35968). Briefly: cell-based or functional assay.
Chain of KDR (human) (P35968 20-1356): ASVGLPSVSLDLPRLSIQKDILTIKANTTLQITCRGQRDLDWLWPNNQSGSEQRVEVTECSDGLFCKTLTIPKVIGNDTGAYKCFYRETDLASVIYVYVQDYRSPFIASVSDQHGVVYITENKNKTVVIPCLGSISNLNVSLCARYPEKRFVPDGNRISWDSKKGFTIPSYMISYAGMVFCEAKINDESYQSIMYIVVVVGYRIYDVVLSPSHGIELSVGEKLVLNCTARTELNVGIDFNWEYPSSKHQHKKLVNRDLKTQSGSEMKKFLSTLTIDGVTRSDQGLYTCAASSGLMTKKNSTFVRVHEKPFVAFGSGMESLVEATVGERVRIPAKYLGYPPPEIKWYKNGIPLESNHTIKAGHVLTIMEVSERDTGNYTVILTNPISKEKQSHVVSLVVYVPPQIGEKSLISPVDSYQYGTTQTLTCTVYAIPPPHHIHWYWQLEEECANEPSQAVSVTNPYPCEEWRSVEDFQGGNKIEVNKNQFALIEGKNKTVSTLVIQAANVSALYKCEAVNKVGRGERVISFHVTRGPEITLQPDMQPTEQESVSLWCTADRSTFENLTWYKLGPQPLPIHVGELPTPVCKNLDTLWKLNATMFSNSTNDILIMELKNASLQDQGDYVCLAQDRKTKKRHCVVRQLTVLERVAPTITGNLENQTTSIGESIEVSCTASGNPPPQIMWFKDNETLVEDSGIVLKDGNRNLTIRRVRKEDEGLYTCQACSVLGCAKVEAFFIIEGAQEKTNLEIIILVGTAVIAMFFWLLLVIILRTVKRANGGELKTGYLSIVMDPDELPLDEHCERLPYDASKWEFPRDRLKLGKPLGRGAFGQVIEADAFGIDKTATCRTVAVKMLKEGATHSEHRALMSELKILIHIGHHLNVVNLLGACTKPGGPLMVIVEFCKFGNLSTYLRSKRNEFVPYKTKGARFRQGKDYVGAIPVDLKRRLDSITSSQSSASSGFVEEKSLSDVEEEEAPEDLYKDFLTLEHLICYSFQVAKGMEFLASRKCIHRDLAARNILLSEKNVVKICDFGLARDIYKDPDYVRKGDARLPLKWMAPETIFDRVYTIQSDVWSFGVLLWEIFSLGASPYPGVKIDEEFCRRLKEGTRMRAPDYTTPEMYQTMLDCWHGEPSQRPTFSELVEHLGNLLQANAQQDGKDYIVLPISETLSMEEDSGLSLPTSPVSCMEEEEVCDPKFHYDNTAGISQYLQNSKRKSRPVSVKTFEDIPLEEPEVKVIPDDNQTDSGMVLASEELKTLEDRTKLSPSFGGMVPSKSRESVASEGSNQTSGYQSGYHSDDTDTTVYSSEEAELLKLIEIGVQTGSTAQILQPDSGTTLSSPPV
The target in experiment [7] is human KDR (VEGFR2) on cells (human) (UniProt P35968). Briefly: FACS on HUVEC, control at 2 ug/mL.
Chain of human KDR (VEGFR2) on cells (human) (P35968 20-1356): as above

Chain of whole KDR-ECD (Cat. # 676490, Calbiochem) (human) (P35968 20-764): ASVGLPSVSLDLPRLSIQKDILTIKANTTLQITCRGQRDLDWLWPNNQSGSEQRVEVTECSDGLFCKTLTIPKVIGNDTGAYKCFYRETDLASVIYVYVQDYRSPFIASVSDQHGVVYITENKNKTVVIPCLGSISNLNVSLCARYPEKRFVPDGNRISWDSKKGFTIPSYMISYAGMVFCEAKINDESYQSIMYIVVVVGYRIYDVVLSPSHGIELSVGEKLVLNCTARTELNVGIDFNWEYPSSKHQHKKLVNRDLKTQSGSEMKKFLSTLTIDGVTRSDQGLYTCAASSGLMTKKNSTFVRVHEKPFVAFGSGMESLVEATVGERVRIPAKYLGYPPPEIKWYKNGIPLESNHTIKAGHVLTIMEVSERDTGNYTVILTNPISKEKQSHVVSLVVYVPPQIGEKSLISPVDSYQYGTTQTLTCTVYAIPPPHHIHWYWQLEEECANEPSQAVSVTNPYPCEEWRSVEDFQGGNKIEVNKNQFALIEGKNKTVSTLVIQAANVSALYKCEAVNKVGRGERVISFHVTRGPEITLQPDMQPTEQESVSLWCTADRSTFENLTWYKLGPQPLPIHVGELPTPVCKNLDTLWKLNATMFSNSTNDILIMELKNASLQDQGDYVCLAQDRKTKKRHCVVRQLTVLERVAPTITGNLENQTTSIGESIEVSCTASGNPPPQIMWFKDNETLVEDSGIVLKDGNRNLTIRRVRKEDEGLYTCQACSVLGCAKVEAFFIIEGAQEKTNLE

“IgG1 (Control) (Sigma-Aldrich, Cat. #15154) (antibody)”: the ELISA reading in experiment [1] turned out to be 0.121; in experiment [2], 0.087; in experiment [3] it was 0.082; in experiment [4] it was 0.139; in experiment [5] it was 0.097; in experiment [6] it was 0.079.
In the experiment with KDR (human), IgG2 (antibody) yielded a % of Max VEGF KDR pTyr Activity (at 133 nM antibody concentration), Average of 9%; a % of Max VEGF KDR pTyr Activity (at 133 nM antibody concentration), N = 1 of 6%; a % of Max VEGF KDR pTyr Activity (at 133 nM antibody concentration), N = 2 of 12%.
As to “IgG4 (Control) (Sigma-Aldrich, Cat. #14639) (antibody)”, the ELISA reading in experiment [1] was determined as 0.106; in experiment [2], 0.078; in experiment [3], 0.077; in experiment [4], 0.181; in experiment [5], 0.078; in experiment [6] it was 0.075.
IgG4 (antibody): in the experiment with KDR (human), the % of Max VEGF KDR pTyr Activity (at 133 nM antibody concentration), Average was 8%; the % of Max VEGF KDR pTyr Activity (at 133 nM antibody concentration), N = 1 stood at 6%; the % of Max VEGF KDR pTyr Activity (at 133 nM antibody concentration), N = 2 was determined as 10%.
As to goat isotype control (antibody), the FACS Geometric Mean in experiment [7] stood at 3.28.

For the origin of these results see patent US20100260765A1.
